{"source": "patent US20020119915A1", "about": "“Nutritional intervention composition containing a source of proteinase inhibitor extending post meal satiety” (priority 1999, published 2002)", "origin": "cited, not measured here", "molecules": {"B1": {"name": "Cholecystokinin (peptide, UniProt P06307 21-115, looked up)", "Cholecystokinin": "QPVPPADPAGSGLQRAEEAPRRQLRVSQRTDGESRAHLGALLARYIQQARKAPSGRMSIVKNLQNLDPSHRISDRDYMGWMDFGRRSAEEYEYPS", "modifications": "Cholecystokinin"}}, "tested_on": "humans", "conditions": "injection, 1981 study"}
{"molecule": "B1", "values": [{"measurement": "Decrease of food intake", "value": 16, "unit": "%"}]}
